Test results as given in PMC7515630 (2020).

Target: GST-LOV2GIVe (L) (Avena sativa | , UniProt O49003)

Kd: 270 nM
B1: His-Gαi3 (rat) (natural protein)
chain: MGCTLSAEDKAAVERSKMIDRNLREDGEKAAKEVKLLLLGAGESGKSTIVKQMKIIHEDGYSEDECKQYKVVVYSNTIQSIIAIIRAMGRLKIDFGEAARADDARQLFVLAGSAEEGVMTSELAGVIKRLWRDGGVQACFSRSREYQLNDSASYYLNDLDRISQTNYIPTQQDVLRTRVKTTGIVETHFTFKELYFKMFDVGGQRSERKKWIHCFEGVTAIIFCVALSDYDLVLAEDEEMNRMHESMKLFDSICNNKWFTDTSIILFLNKKDLFEEKIKRSPLTICYPEYTGSNTYEEAAAYIQCQFEDLNRRKDTKEVYTHFTCATDTKNVQFVFDAVTDVIIKNNLKECGLY
